Experimental data as given in article PMC9172074, “A microfluidic paper analytical device using capture aptamers for the detection of PfLDH in blood matrices”.

Legend:
[1] = molecular target: T1, rPfLDH (recombinant Plasmodium falciparum lactate dehydrogenase) (Plasmodium falciparum, UniProt Q76NM3 1-316); experiment: paper capture, Malstat enzyme activity colorimetry; Zone 3, apparent Kd; PBS pH 7.4 (10 mM Na2HPO4, 1.8 mM KH2PO4 [printed KH2HPO4], 2.7 mM KCl, 137 mM NaCl), room temperature, 30 min; pL1: 20 mM Tris, 50 mM NaCl, 5 mM KCl, 5 mM MgCl2, 0.01% Tween 20, pH 8.0; conditions: protein: recombinant; chain copies: 4; label: 5' biotin
[2] = molecular target: T1, rPfLDH (recombinant Plasmodium …); experiment: paper capture, Malstat enzyme activity colorimetry; Zone 1, apparent Kd (fit 23.643 ± 10.806); PBS pH 7.4 (10 mM Na2HPO4, 1.8 mM KH2PO4 [printed KH2HPO4], 2.7 mM KCl, 137 mM NaCl), room temperature, 30 min; pL1: 20 mM Tris, 50 mM NaCl, 5 mM KCl, 5 mM MgCl2, 0.01% Tween 20, pH 8.0; conditions: protein: recombinant; chain copies: 4; label: 5' biotin

B1: rLDH7 (ssDNA)
DNA: GCCTGTTGTGAGCCTCCTAACCCAGAATAGGGACTGCTCGGGATTGCGGATGAGTCTGGGTGGGACATGGCATGCTTATTCTTGTCTCCC
Kd [1]: 11.4 ± 5 nM
Kd [2]: 24 ± 11 nM
